Consider 41 sequences from the nanobody polyreactivity screen of Harvey et al. (2022).

The nature of this data set: yeast display, Sf9 membrane polyspecificity reagent, FACS + sequencing; frameworks hold sequencing errors. In a few lines:
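Sorting gates, low and high (top ~1%), were placed on anti-HA fluorescence to track expression and on streptavidin fluorescence to track reagent binding. A clone's polyreactivity label is taken from the gate it came out of. The reagent was 10% biotinylated, detergent-solubilized Sf9 membrane, applied for 1 hour at 4 °C to galactose-induced yeast display cells.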
On to “QVQLVESGGGLVQAGGTLRLSCAASGGIFLYYAMGWYRQAPGKERELVATISSGGSTKYADSVKGRFTISRDNAMNTVYLQMNSLKPEDTAVYYCNKVFPNLYIYVVRGLIEMDYWGQGTQVTVSS”, for which the “polyreactivity (PSR sort gate)” value is “low polyreactivity”.

“QVQLVESGGGLVQAGGTLRLSCAASGITFVQYAMGWYRQAPGKETELVASITRRGGSTYYADSVKGRFTISRDNAKNTVYLQMNSLKQEDTAVYYCAARWSAWRGYIFDYWGQGTQVTVSS”: the “polyreactivity (PSR sort gate)” value is on record as “high polyreactivity”.

On to “QVQLVESGGGLVQAGGTLRLSCAASGITFWYYARGWYRPAPGKERELVAVISYSGGIKSYADSVKGRFTISRENAKNTVNLQMNSMKPEDTAVFYCYTLYGRFKAKVYKYGSWGQGTQVTVSS”, for which the “polyreactivity (PSR sort gate)” value was “high polyreactivity”. The result for “QVQLVESGGGLVQAGGTLRLSCAASGLIFDANAMGWYRQAPGTERELVAAITGSGGRTYYADSVKGRFTISRDIAKHTVYLQMNSLKPEDTAVYYCAASSKRKYLYNYWGQGTQVTVSS” reads “high polyreactivity”; that for “QVQLVESGGGLVQAGGTLRLSCAASGPILSRNAMAWYRQAPGKERELVAAISRSGGSTYYADSVKGRFTISRDNAKNTVYFQMNSLKPEDTAVYYSATRYMGRLDYWGQGTQVTVSS”, “high polyreactivity”; that for “QVQLVESGGGLVQAGGTLRLSCAASGRIFSDYAMGWYRQAPGKEREFVAAISSSGGRTYYADSVKGRFTISRDNAKNTVYLQMNSLKPEDTAVYYCNRYNGYYNTGRYGYLGQGTQVTVSS”, “high polyreactivity”. Next, “QVQLVESGGGLVQAGGTLRLSCAASGRTFKKYTMGWYRQAPGKERELVAVITSGGSTYYADSVKGRFTISRDNAKNTVYLQMNSLKPEDTAVYYCAVKYPELRTWGYYYWGQGTQVTVSS”: “high polyreactivity”; “QVQLVESGGGLVQAGGTLRLSCAASGRTFPSNAMGWYRQAPGKEREFVASITYSGGRTYYADSVKGRFTISRDNAKNTVYLQMNSLKPEDTAVFYCATARYRYHYYSWGQGTQVTVSS”: “high polyreactivity”; “QVQLVESGGGLVQAGGTLRLSCAASGRTFRNNAMGWYRQAPGKEWELVAAISLRGGSTYYADSVKGRFTISRDNAKNTVYLLMNSLKPEDTAVYYCATRSRGWIAPPWQGSDGYYYWGQGTQVTVSS”: “low polyreactivity”. The result for “QVQLVESGGGLVQAGGTLRLSCAASGRTFTSYTMGWYRQAPGKERELVATISFGGGRTYADSVKGRFTISRDNAKNTVYLQMNSLKTEDTAVYYCNAGYYWRLHWWYYYWGQGTQVTVSS” reads “high polyreactivity”. As for “QVQLVESGGGLVQAGGTLRLSCAASGRTFTYYAMGWSRQAPGKEREIVSAISSTGTSTYYADSVKGRFTISRDNAKNTVYLQMNSLKPEDTAVYYCNARVATYRLHSKFYYWGQGTQVTVSS”, the “polyreactivity (PSR sort gate)” value is “high polyreactivity”.

With “QVQLVESGGGLVQAGGTLRLSCAASGRTLGANALGWYRQAPGKERELVAAITQSGSSTYYADSVKGRFTISRDNAKNTVYLQMNSLKPEDTAVYYCAAEWNVVLAGAVYFRYNYWGQGTQVNVSS”, the “polyreactivity (PSR sort gate)” value was “low polyreactivity”. In the case of “QVQLVESGGGLVQAGGTLRLSCAASGRTYYPNTMGWYRQAPGKERELVATITRSGGNTYADSVKGRFTISRDNAKNTVYFQMTSLKPEDTAVYYCAARNGRIAWMNYWGQGTQVTVSS”, the “polyreactivity (PSR sort gate)” value is “low polyreactivity”. Next, “QVQLVESGGGLVQAGGTLRLSCAASGSIFGRNTMGWYRQAPGKERELVAAINSGGGTYYADSVKGRFTISRDNAKNTVYLQMNSLKPEDTAVYYCAKASRAVRHGDYWGQRTQVTVSS”: “low polyreactivity”; “QVQLVESGGGLVQAGGTLRLSCAASGSIFIPYAMGWYRQEPGKERELVAAISGSGTSTNYADSVKGRFTISRDNAKITVYFQMISLKPEDTAVYYCAKGYSNFYRSDYWGQGTQVTVSS”: “high polyreactivity”. Next, “QVQLVESGGGLVQAGGTLRLSCAASGSIFPDNTMGWYRQAPGKERELVAAIDGRGVTTYYADSVKGRFTISRDNAKNTVYLHMNSLKPEDTAVYYCAAQPWLRYYYWGQGTQVTVSS”: “low polyreactivity”; “QVQLVESGGGLVQAGGTLRLSCAASGSILQYNAMGWYRQATVKVSELVAAISRTGGSTYYADSVKGRFTISRDIAMNNLYLQMNSLKPEDTAVYYCNVYLGILYKYDYWGQGNQVTVSS”: “low polyreactivity”; “QVQLVESGGGLVQAGGTLRLSCAASGSMFDGNAMGWYRQAPGKERELVAAISRRGGSTYYADSVKGRFTISRDNAKNTVYLQKNSLKPEDTAVYYCNAYLSYFDGNYWGEGTQVTVSS”: “high polyreactivity”.

Take “QVQLVESGGGLVQAGGTLRLSCAASGSTFELNVMGWYRQAPGKERELVAAISSGTSTNYADSVKGRFTISRDNAKYTVYLHLKSVKPVDTAVYYCAADPFTIPTSDFYYWGQVTQVTVSS”: the “polyreactivity (PSR sort gate)” value is recorded as “low polyreactivity”. Next, “QVQLVESGGGLVQAGGTLRLSCAASGSTFEYYAMGSYRQAPGKEREFVAAISSGPSTTYADSVKGRFTISRDNSKNTVYLQMNSLKPEDTAVYYCARRDGTTQALFGYDYWGQGTQVTVSS”: “low polyreactivity”; “QVQLVESGGGLVQAGGTLRLSCAASGSTFFVYAMAWYRQEPGKERELVAAISSRGSTYYADSVKGRFTISRDNAKNTVFLQMISLKPEDSAVYFCAAEYTVSYLRMDYWGQGTQVTVSS”: “low polyreactivity”. With “QVQLVESGGGLVQAGGTLRLSCAATGITFDAYVMGWYRQAPGKERELVAGIYSGGSTYYADSVKGRFTISRDNAKNTVYLQMNSLKPEDTAVYYWARENYRFADEPPVSRQIPYDYWGQGTQVTVSS”, the “polyreactivity (PSR sort gate)” value was “low polyreactivity”. The result for “QVQLVESGGGLVQAGGTLRLSCAATGSTFPYNAMGWYRQAPGKERELVAAINSAGGTNYADSVKGRFTISRDNAKNTVYLQMNSLKPEDTAVYYCAADGSGYYDWYYYWGQGTQVTVSS” reads “low polyreactivity”; that for “QVQLVESGGGLVQAGGTLRLSCSASGRTFYSYAMGWYRQAPGKERELVAAISYTGASTFYADSVKGRFTISRDNAKNTVYLQMNSLIPEDTAVYYCAAESQPSYGETDEYWGQGTQVTVSS”, “high polyreactivity”; that for “QVQLVESGGGLVQAGGTLRLSGDASGSTFPANAMGWYRQAPGKERELVAAISYRGGSTYYADSVKGRFTISRDNAKNTVYLQMNSLKPEDTAVYYCAATPWYRTRTYDYWGQGTQVTVSS”, “high polyreactivity”. Next, “QVQLVESGGGLVQAGGTLRLTCAASGFTLTRNAMGWYRQAPGKERELVAAISRSGGSTYYADSVKGRFTISRDNAKNTVYLQMNSLKPEDTAVYYCAADDKYFYPGNGYWGLGTQVTVSS”: “high polyreactivity”; “QVQLVESGGGLVQAGGTLSLSCAASGGTFSTNTMGWYRQATGKERELVAAITEGTGNTYYADSVKGRFTISRDNAKNTVYLQMNSLKPEDTAVYYCATAYAVYHVEYGYWGQGTQVTVSS”: “low polyreactivity”; “QVQLVESGGGLVQAGRILRISCAASGFKYAMGWYRQEPGKERELVAAISSGGITSYADSVKGRFTISRDNAKNTVYLQMNSLKPEDTAVYYCAAALRRRRAYFDYWGQGTQVTVSS”: “high polyreactivity”. Next, “QVQLVESGGGLVQAGRSLPLSCAASGRIIELYGMGWKRPATGKERELVAAMSYGGGSTYYAESVKGRFTISRDNAKNTVYLQMNSLKPEDTAVYYCAARYRTLTKYYWGQGTQVTVSS”: “low polyreactivity”; “QVQLVESGGGLVQAGRSLRLICAASGRTFSPNTMGWYRQAPGKEREFVAAINRSGGTTYYADSVKGRFTISRDIAKNTVYLQMNSRKPEDTAVYYCAADSIVPIYRGNDDNYWGQGTQVTVSS”: “low polyreactivity”; “QVQLVESGGGLVQAGRSLRLSCAASGFTFGYYAMGWYRQAPGKERELVASISITAGSTYYADSVKGRFTISRDNAKNTVYLQMNSLTPEDTAVYYCAAKRRTRQSYYTEYYWGQGTQVTVSS”: “high polyreactivity”. Regarding “QVQLVESGGGLVQAGRSLRLSCAASGFTFVWYAMGWYRQAPGTERELVAAISRRGTRTYYADSVKGRFTISRDNAKNTVYLQMNSLKPEDTAVYYCAASNGYQAVTYDYWGQGTQVTVSS”, the “polyreactivity (PSR sort gate)” value is “high polyreactivity”. The result for “QVQLVESGGGLVQAGRSLRLSCAASGIISYRNGMGGYRQAPGKERELVASISKRADSTYYADSVKGRFTISRDNAKNTVYLQLNSLKPEDTAVYYCAARRLITCYGQTHYGYWGQGTQVTVSS” reads “high polyreactivity”; that for “QVQLVESGGGLVQAGRSLRLSCAASGITFPVYPMGWYRQAPGKERELVATITSSGGRTYYADSVKGRFTISRDNAKNTVYLQMNSLKPEDSAVYYCAAANGKGQGGYDYWGHGTQVTVSS”, “high polyreactivity”. The result for “QVQLVESGGGLVQAGRSLRLSCAASGLIFRYYPMGWYRQAPGKEREFVAAISGRGASTYYADSVKGRFTISRDYAKNSVYLQMNCLKPEDTAVYYCATFFPSAVVAFHMDYWGQGTQVTVSS” reads “low polyreactivity”; that for “QVQLVESGGGLVQAGRSLRLSCAASGRIFFGYAMGWYRQAPGKERELVAVISSGCRTYYADSVKGRFTISRDNAKNTVYLQMNSLKAEDTAVYYCAAIIPPTKQRGYYYVGRSEYDYWGQGSQVTVSS”, “low polyreactivity”; that for “QVQLVESGGGLVQAGRSLRLSCAASGRIFQWNAMGWYRQAPGKERELVADITYSGSSTNYADSVKGRFTISRDNAKNSVYLQMNSVKPEVSAVYYCTRDFYQYLSYFWHYVYWGQGTQETVSS”, “low polyreactivity”. With “QVQLVESGGGLVQAGRSLRLSCAASGRIFRSYAMGWYRQAAGKERELVAAINYSGGNTYYADSVKGRFTISRDNAKNTVYLQLNCVKPDDTAVFYCNARGYYYSSRYGYWGQGTQVTVSS”, the “polyreactivity (PSR sort gate)” value is listed as “high polyreactivity”. Regarding “QVQLVESGGGLVQAGRSLRLSCAASGRTFCYYAMGLYRKAPGKERELIAAITNRGGNTYYADSVKGRFTISRDNAKNTVYLQMNSLKPEDTAVYYCAAYNRIYGYHTLYYWGQGTQVTVST”, the “polyreactivity (PSR sort gate)” value is “high polyreactivity”. The result for “QVQLVESGGGLVQAGRSLRLSCAASGRTFGYNPMGWYRQAPGKEREFVAAISYSGTSTYYADSVKGRFTISRDNAKNTVYLQMNSLKPEDTAVYYCNAEALISWRYDYWGQGTQVTVSS” reads “low polyreactivity”; that for “QVQLVESGGGLVQAGRSLRLSCAASGRTFPYNAMGWYRQAPGKERELVAAITWSGGSTYYADSVKGRFTISRDNAKNTVYLQMNSLKAEDTAVYYCNKDFPVFEYDYWGQGTQVTVSS”, “low polyreactivity”.
